Experimental findings from patent US20100035945A1, “SMALL MOLECULE INHIBITORS OF BACTERIAL DAM DNA METHYLTRANSFERASES” (priority 2004, published 2010) are described below.

“Also recorded” adds a separate entry of the source. Read-outs that look alike come from different tables or passages of the source.

Series [1] has as its system EPEC. It counts as cell-based, enteropathogenic E. coli (EPEC). The settings on record: 20 μM compound, 3T3 cells infected with EPEC for 6 hrs, FITC-phalloidin/DAPI. From the text: Cell and animal models for pathogenic E. coli infection: Enteropathogenic E. coli (EPEC), which is closely related to enterohemorrhagic E. coli O157:H7 (EHEC), and the closely related mouse pathogen Citrobacter rodentium all cause attaching and effacing (A/E) lesions, characterized by flattening of intestinal microvilli, adherence of the bacteria to epithelial cells, and reorganization of the host actin cytoskeleton, which result in the formation of an actin-filled membrane protrusion or “pedestal” beneath each bacterium (Goosney et al., 2000; Knutton et al., 1989). Pedestal formation is readily detected on cultured fibroblasts (see FIG. 30) exposed to EPEC, and then stained with antibodies that recognized outer membrane proteins in the bacterium (green in FIG. 30) or DAPI, which recognizes bacterial and cellular DNA (blue in FIG. 30), together with phalloidin to recognize actin (red in […]). Pedestals are seen as intense actin staining directly opposed to the bacterium.
(§1) To determine whether formation of actin pedestals by EPEC could be used to screen for drugs which inhibit virulence, we tested each of the 82 compounds. 3T3 cells were plated in 96 well optical dishes. In this “proof of principle” experiment, each of the 82 compounds was added to a well at 20 μM, and cells were infected with EPEC for 6 hrs. The optical density (OD600) of the supernatant was assessed to estimate effects on bacterial growth, and the cells were fixed and stained with DAPI to recognize bacteria (and cell nuclei), and FITC-phalloidin to recognize filamentous actin. Inhibition of actin pedestals is readily identifiable as the loss of intense actin staining (Kalman et al., 1999; Swimm et al., 2004a). The plate was then scanned visually on an inverted Zeiss 200M fluorescence microscope with a 20× objective. All the wells on the dish were examined with 5 minutes (a high throughput format). At low power, actin pedestals are seen as intense fluorescence apposed to groups of bacteria (see FIG. 31B, arrow).

Series [2] deals with Dam (Escherichia coli, UniProt P0AEE8). The conditions noted are these: compound concentration 200 μM; preliminary results, microplate assay.
Series [3] relates to 3T3 cells. The settings on record: 20 μM compound. The procedure:
as §1

Series [4] concerns EPEC. The series is described as follows: bacterial growth by OD600 of supernatant / growth curves. In kind it is cell-based, enteropathogenic E. coli (EPEC). The conditions noted are these: 20 μM compound, listed as G6. On the procedure:
as §1

Series [5] concerns the target T1, EcoDam DNA adenine methyltransferase (Escherichia coli, UniProt P0AEE8 SEQ:1-274). The conditions noted are these: 2-aminopurine replacing orphan Thy; AdoHcy, Thy flipping.
Series [6] deals with EcoDam R124A R124A (Escherichia coli) (UniProt P0AEE8). The series is described as follows: SPR. Background: In SPR one partner is held on a chip, and binding of the other changes the refractive index at the surface.
For series [7], the target named is EcoDam K9A K9A (Escherichia coli) (UniProt P0AEE8). Nature of the series: SPR. The settings on record: data not shown.
Series [8] has as its target T1, EcoDam DNA adenine methyltransferase. Nature of the series: structure; AdoHcy cognate complex 1.89 A; also sinefungin non-canonical joint complex 1.99 A. The conditions noted are these: tags: His tag. On the procedure:
His Tag-EcoDam is expressed in HMS174(DE3) cells and purified using Ni²⁺-affinity, UnoS, and S75 Sepharose sizing columns. A 0.5-liter induced culture yields approximately 7 mg purified His Tag-EcoDam. In the last purification step and during concentration, cofactor analog AdoHcy or sinefungin is added is added to the protein at approximately 2:1 molar ratio. Concentrated binary complexes are mixed with oligonucleotide duplex (synthesized by New England Biolabs, Inc) at a protein to DNA ratio of about 2:1 and allowed to stand on ice for at least two hours before crystallization. Final protein concentration for crystallization is about 15 mg/mL. In hanging drop crystallization trials with AdoHcy, the ternary complex crystals appeared under low salt conditions of 100 mM KCl, 10 mM MgSO₄, 5-15% PEG400, and 100 mM buffer (MES or HEPES) pH 6.6-7.4 (the cognate crystal form in Table 4).
Structural determination of the cognate ternary complex proceeded by molecular replacement with the program REPLACE (Tong and Rossmann, 1997) using protein coordinates of a DpnM monomer structure (PDB 2DPM) (Tran et al., 1998). […] Structure of the non-cognate ternary complex was determined using a protein monomer from the refined cognate complex structure as a search model.

Series [9] addresses T2, T4Dam DNA adenine methyltransferase (Enterobacteria phage T4, UniProt P04392 SEQ:1-259). Nature of the series: structure; sinefungin; PDB 1YFL; full site with flipped Ade.
The target in series [10] is T2, T4Dam DNA adenine methyltransferase. The series is described as follows: structure; AdoHcy; PDB 1YF3; nonspecific and 1/4-site. The conditions noted are these: one-base 5' overhangs.
For series [11] the target is unchanged. Nature of the series: structure; AdoHcy; nonspecific mode, not at GATC; 3.1 A.

In the case of `O=C1Oc2ccccc2C(=O)/C1=C/Nc1nc(-c2ccc(O)c(O)c2)cs1` [Compound 78], the actin pedestal formation entry in series [1] is reported as “inhibit actin pedestal formation”; in series [1] (listed as G6), “appeared to inhibit actin pedestals; also recorded: No actin pedestals are observed”; in [1] (listed as NCI 659390), “inhibit actin pedestal formation”. The molecule also displayed a Factor of inhibition in [2] of 5. Also, the “gross cytopathological effects on 3T3 cells” value in series [3] is given as “no gross cytopathological effects”. Moreover, in series [4], the “effect on bacterial growth (OD600)” value was “did not affect bacterial growth; also recorded: no effect on bacterial growth”.

For the molecule GATC with 2AP at orphan Thy, the binding signal (fold fluorescence increase) in [5] came out at 6.

For SPR GATC oligonucleotide duplex, the binding signal (fold reduction vs wild type) in [6] was 10. The molecule further registered a binding signal (% of wild type binding) in series [7] of 70.

B1: EcoDam 12-mer (dsDNA)
DNA 1: TCTAGATCTAGA
DNA 2: TCTAGATCTAGA
For the molecule B1, the binding result in series [8] was “binds”.

B2: 16-mer duplex (dsDNA)
DNA 1: TCACAGGATCCTGTGA
DNA 2: TCACAGGATCCTGTGA
As for B2, in series [9], the binding result is “binds”.

B3: 13-mer duplex II (dsDNA)
DNA 1: TGTCAGATCATGG
DNA 2: ACCATGATCTGAC
Regarding B3, the binding result in [10] is “binds”.

B4: 12-mer duplex I (dsDNA)
DNA 1: ACAGGATCCTGT
DNA 2: ACAGGATCCTGT
Take B4: the binding result in series [11] is “binds”.
